This is an account of results in patent US20260243766A1 (CHILDREN S HOSPITAL OF PHILADELPHIA, published 2026).

In the assay the target is T1, A*23:01/PHOX2B (human, UniProt P61769 21-119, limits assumed).
T1 construct: The preparation of this complex is not described; also called HLA-A*23:01/PHOX2B complex
Kind of assay: SPR.

T1 sequence (P61769 21-119 limits assumed, chain 3 of 2, other chains not shown): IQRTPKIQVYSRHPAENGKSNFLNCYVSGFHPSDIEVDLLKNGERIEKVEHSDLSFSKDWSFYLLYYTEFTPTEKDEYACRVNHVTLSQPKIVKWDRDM

B1: 10LH single-chain antibody fragment (Clone 10 (RU141-10) scFv) (scFv)
scFv: SRNGGDGQSVLTQPPSVSVSPGQTASITCSGDSLGNKYACWYQQKPGQSPVLVIYQDSKRPSGIPERFSGSNSGNTATLTISGTQAMDEADYYCQAWDSSRGYTVVFGTGTKVTVSSQTGGSGGGGSGGGGSGGGGSEVQLLESGGGLVQPGGSLRLSCAASGFTFDSYAMSWVRQAPGKGLEWVSAISGYGGSTYYADSVKGRFTISRDNSKNTLYLQMNSLRAEDTAVYYCAKYTYFLDAFDIWGQGTMVTVSSS
notes: also called Clone 10LH; scFV 10LH
On to B1, for which the Kd is roughly 20 µM.
